Data as given in US20040071656A1, “Modulation of heat-shock-protein-based immunotherapies” (priority 2001, published 2004).
No end group written: not given here. *: point of attachment. Biotin = O=C1N[C@H]2[C@H](CS[C@H]2CCCCC(=O)*)N1

Molecular target: Recombinant human His6-tagged Hsp70 (human), P0DMV8
Assay: ELISA with streptavidin-peroxidase after gel filtration of Hsp70 loaded with biotinylated peptide C (ADP)

Sequence of Recombinant human His6-tagged Hsp70 (human), P0DMV8 (P0DMV8 2-641): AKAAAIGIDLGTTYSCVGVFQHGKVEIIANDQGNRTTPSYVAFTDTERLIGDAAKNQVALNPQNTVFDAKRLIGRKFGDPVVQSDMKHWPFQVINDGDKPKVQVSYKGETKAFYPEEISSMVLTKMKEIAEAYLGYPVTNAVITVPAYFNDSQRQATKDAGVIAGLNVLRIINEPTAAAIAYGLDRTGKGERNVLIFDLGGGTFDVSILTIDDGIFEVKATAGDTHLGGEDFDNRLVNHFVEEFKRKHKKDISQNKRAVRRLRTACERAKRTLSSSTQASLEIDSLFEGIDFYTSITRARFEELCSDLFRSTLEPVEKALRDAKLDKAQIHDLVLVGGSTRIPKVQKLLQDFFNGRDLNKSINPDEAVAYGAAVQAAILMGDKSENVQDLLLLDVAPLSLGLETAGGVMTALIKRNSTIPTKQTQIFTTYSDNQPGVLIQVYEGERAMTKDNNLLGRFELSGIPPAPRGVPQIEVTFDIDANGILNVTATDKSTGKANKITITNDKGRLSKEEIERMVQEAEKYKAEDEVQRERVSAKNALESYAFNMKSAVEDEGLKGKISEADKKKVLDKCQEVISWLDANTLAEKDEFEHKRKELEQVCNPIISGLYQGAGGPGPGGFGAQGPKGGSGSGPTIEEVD

Binder: Biotin-GCEVFGLGWRSYKH [Biotinylated peptide C (biotin-…)]
- yield of Hsp70 complex formation: 20 to 30%
